From patent US20110165170A1 (Pfizer, published 2011)
Read-outs that look alike come from different tables or passages of the source.

Experiments:
[1] = molecular target: T1, recombinant mouse osteopontin (R&D Systems #441-OP/CF, carrier free) (mouse, UniProt P10923 17-294, biotinylated in the capture ELISA); experiment: Biacore 3000 (SPR), IgG flowed over amine-coupled mouse Osteopontin; avidity, 1:1 fit
T1 construct: Bought protein; also called mOPN; mouse OPN
Protocol: (§1) Binding avidity of monoclonal antibodies to Osteopontin was determined using Biacore analysis (General Electric Healthcare, Biacore 3000). To obtain nominal avidity measurements, human Osteopontin (R&D Systems, 1433-OP-050/CF) and mouse Osteopontin (R&D Systems, 441-OP-050/CF) were immobilized on a biosensor chip using standard amine coupling and various concentrations of monoclonal antibodies (MOR6990, MOR6991 and MOR6993) were flowed across the surface at 25.0° C. in 10 mM HEPES pH 7.4, 150 mM NaCl, 0.005% P20. The binding data were fit globally to a simple one-to-one binding model.

[2] = molecular target: T2, recombinant human osteopontin (R&D Systems #1433-OP/CF, carrier free) (human, UniProt P10451 17-314, biotinylated in the capture ELISA, on the SET plates and on the Biacore streptavidin chip); experiment: cell-based or functional assay
T2 sequence (P10451 other isoform, or with tags, fused parts or gaps limits assumed): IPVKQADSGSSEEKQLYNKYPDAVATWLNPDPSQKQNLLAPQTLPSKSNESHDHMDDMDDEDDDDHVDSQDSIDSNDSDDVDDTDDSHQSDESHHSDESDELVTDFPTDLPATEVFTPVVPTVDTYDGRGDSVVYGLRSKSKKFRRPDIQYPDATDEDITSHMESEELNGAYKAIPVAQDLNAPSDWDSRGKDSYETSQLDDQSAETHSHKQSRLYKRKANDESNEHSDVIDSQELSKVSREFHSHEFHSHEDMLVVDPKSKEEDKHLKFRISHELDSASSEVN

[3] = molecular target: T2, recombinant human osteopontin (R&D …); experiment: Biacore 3000 (SPR), IgG flowed over amine-coupled human Osteopontin; avidity, 1:1 fit
Protocol: as §1

[4] = molecular target: T1, recombinant mouse osteopontin (R&D …); experiment: Biacore (SPR), Fab over amine-coupled murine OPN on CM5 chip
Protocol: (§2) Binding to immobilized antigen was analyzed using the BIAcore3000 instrument (Biacore, Sweden).
(§3) For antigen immobilization, two alternative strategies were used: in the case of human OPN, biotinylated human OPN was bound to a Streptavidin coated sensor chip (Biacore, Sweden) to a binding level of approximately 300 RU. The reference flow cell was coated with a similar amount of biotinylated HSA. In the case of murine OPN, the antigen was immobilized covalently using standard EDC-NHS amine coupling chemistry. CM5 chips (Biacore, Sweden) were coated with murine OPN in 10 mM acetate buffer, pH 3.5 to a level of 400 RU. For the reference flow cell, a respective amount of HSA was used. Regeneration was accomplished with two injections of 10 mM Gly/HCl, pH 1.5 (5 μL) and 50 mM phosphoric acid (5 μL), respectively. Kinetic measurements were done in Dulbeccos PBS, pH 7.4 (Gibco) with 0.05% Tween 20 at a flow rate of 20 μL/min using a 2n serial dilution row of Fab samples. The Fab concentrations ranged from 15.6 to 500 nM. The injection time for each concentration was 1 minute, and the dissociation time was set to a minimum of 3 minutes. A blank injection of running buffer was used for double referencing. All sensorgrams were fitted globally using BIA evaluation software 3.2 (Biacore, Sweden), to determine association and dissociation rate constants (kₒₙ and koff), which were used to calculate the affinity (KD=koff/kₒₙ).

[5] = molecular target: T2, recombinant human osteopontin (R&D …); experiment: cell-based or functional assay; remark: listed apart in the source
[6] = molecular target: T2, recombinant human osteopontin (R&D …); experiment: solution equilibrium titration (SET), ECL, Fab
Protocol: Affinity determination in solution was basically performed as described in the literature (Friguet et al., J. Immunol. Methods 77:305 (1985)). In order to improve the sensitivity and accuracy of the SET method, it was transferred from classical ELISA to ECL based technology (Haenel et al., Anal. Biochem. 339:182-184 (2005)). 1 mg/mL goat-anti-human (Fab)₂ fragment specific antibodies (Dianova) were labeled with MSD Sulfo-TAG™ NHS-Ester (Meso Scale Discovery, Gaithersburg, Md., USA) according to the manufacturer's instructions. The experiments were carried out in polypropylene microtiter plates and PBS, pH 7.4, with 0.5% BSA and 0.02% Tween 20 as assay buffer. Unlabeled osteopontin was diluted in a 2n series, starting with a concentration at least 10 times higher than the expected KD. Wells without antigen were used to determine Bₘₐₓ values; wells with assay buffer were used to determine background. After addition of e.g. 25 pM Fab (final concentration in 60 μL final volume), the mixture was incubated over night at room temperature. The applied Fab concentration was similar to or below the expected KD.
Streptavidin coated MSD plates were blocked over night with 3% BSA in PBS (50 μL/well), subsequently the blocking solution was discarded and the plates were coated with […] biotinylated osteopontin in assay buffer (30 μL/well) for 1 hour. After washing the coated MSD plates with assay buffer, the equilibrated samples were transferred to those plates (30 μL/well) and incubated for 20 minutes. After washing, 30 μL/well of the MSD Sulfo-tag labeled detection antibody (goat anti-human (Fab)₂) in a final dilution of 1:1000 was added to the MSD plate and incubated for 30 minutes on an Eppendorf shaker (700 rpm).

[7] = molecular target: T2, recombinant human osteopontin (R&D …); experiment: Biacore (SPR), Fab over biotinylated human OPN on streptavidin chip
Protocol: as §2, §3

[8] = molecular target: T3, SPP1 peptide comprising functional domains of mouse OPN (27 aa) (mouse); experiment: peptide ELISA, Fab on mouse SPP1 peptide
T3 construct: Target of the 'Peptide ELISA, mOPN' columns; also called mOPN peptide; SSP1 peptide

[9] = molecular target: T1, recombinant mouse osteopontin (R&D …); experiment: protein ELISA, Fab on mouse OPN protein
[10] = molecular target: T2, recombinant human osteopontin (R&D …); experiment: protein ELISA, Fab on human OPN protein
[11] = molecular target: T1, recombinant mouse osteopontin (R&D …); experiment: Biacore (SPR), Fab over immobilized mouse OPN
Protocol: as §3

[12] = molecular target: T2, recombinant human osteopontin (R&D …); experiment: Biacore (SPR), Fab over immobilized human OPN
[13] = molecular target: T4, SPP1 peptide comprising functional domains of human OPN (27 aa) (human); experiment: peptide ELISA, Fab on human SPP1 peptide
T4 construct: Target of the 'Peptide ELISA, hOPN' columns; also called hOPN peptide; SSP1 peptide

T1 sequence (P10923 17-294 limits assumed): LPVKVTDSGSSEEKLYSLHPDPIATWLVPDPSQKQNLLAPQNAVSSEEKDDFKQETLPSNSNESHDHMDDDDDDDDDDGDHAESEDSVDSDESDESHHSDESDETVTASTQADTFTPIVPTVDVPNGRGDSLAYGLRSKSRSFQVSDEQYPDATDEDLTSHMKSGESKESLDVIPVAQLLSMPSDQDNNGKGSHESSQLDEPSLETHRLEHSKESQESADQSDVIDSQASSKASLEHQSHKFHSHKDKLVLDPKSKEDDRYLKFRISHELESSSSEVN

Binder	Adhesion Assay Mn2+-dependent hOPN, IC50 [2]	Kd [3]	koff [3]	kon [3]	Kd [4]	Adhesion Assay Mn2+-dependent hOPN, IC50 [5]	Kd [6]	Kd [7]	also measured
HuCAL GOLD Fab 6990 (MOR-6990 Fab) (Fab, V domains shown, Fab format made in E. coli) VH: QVQLVESGGGLVQPGGSLRLSCAASGFTFSNYVMHWVRQAPGKGLEWVSSIFGSGSDTYYADSVKGRFTISRDNSKNTLYLQMNSLRAEDTAVYYCARSASSGFGFAGYGIDSWGQGTLVTVSS VL: DIELTQPPSVSVAPGQTARISCSGDSLRYYYAHWYQQKPGQAPVLVIYDDNKRPSGIPERFSGSNSGNTATLTISGTQAEDEADYYCQSWDLFHSSVFGGGTKLTVL					2.27 µM	0.157 µM	0.035 µM	0.14 µM	
MOR-10475 Fab (Fab, V domains shown, Only variable domains are tied to the Fab) VH: QVQLVESGGGLVQPGGSLRLSCAASGFTFSNYVMHWVRQAPGKGLEWVSSIFGSGSDTYYADSVKGRFTISRDNSKNTLYLQMNSLRAEDTAVYYCARSASSGFGFAGYGIDSWGQGTLVTVSS VL: DIELTQPPSVSVAPGQTARISCSGDSLRYYYAHWYQQKPGQAPVLVIYDDNKRPSGIPERFSGSNSGNTATLTISGTQAEDEADYYCQAWDLINSHVFGGGTKLTVL									EC50 [8]: 0.0007 µM; EC50 [9]: 0.0006 µM; EC50 [10]: 0.0006 µM; Kd [11]: 0.041 µM; Kd [12]: 0.08 µM; EC50 [13]: 0.0007 µM
HuCAL GOLD Fab 6993 (MOR-6993 Fab) (Fab, V domains shown, Fab format made in E. coli) VH: QVQLVESGGGLVQPGGSLRLSCAASGFTFTTSSMHWVRQAPGKGLEWVSRISSHGSNTYYADSVKGRFTISRDNSKNTLYLQMNSLRAEDTAVYYCARDMYRGVYGFALWGQGTLVTVSS VL: DIELTQPPSVSVAPGQTARISCSGDAIRNYYVHWYQQKPGQAPVLVIYEDSDRPSGIPERFSGSNSGNTATLTISGTQAEDEADYYCQSYDKSNVVFGGGTKLTVL					3.98 µM	0.0298 µM	0.0002 µM	0.07 µM	

Continued, in another order:

Adhesion Assay Mn2+-dependent hOPN, IC50 [2]	Kd [3]	koff [3]	kon [3]	Kd [4]	Adhesion Assay Mn2+-dependent hOPN, IC50 [5]	Kd [6]	Kd [7]	Binder	also measured
0.0004 µM	0.0209 µM	0.00203 s⁻¹	96900 M⁻¹ s⁻¹					MOR-6990 (full length human IgG2) (antibody, V domains shown, Human IgG2, lambda light chain; made in HKB11 cells) VH: QVQLVESGGGLVQPGGSLRLSCAASGFTFSNYVMHWVRQAPGKGLEWVSSIFGSGSDTYYADSVKGRFTISRDNSKNTLYLQMNSLRAEDTAVYYCARSASSGFGFAGYGIDSWGQGTLVTVSS VL: DIELTQPPSVSVAPGQTARISCSGDSLRYYYAHWYQQKPGQAPVLVIYDDNKRPSGIPERFSGSNSGNTATLTISGTQAEDEADYYCQSWDLFHSSVFGGGTKLTVLG	Kd [1]: 0.0047 µM; koff [1]: 0.000864 s⁻¹; kon [1]: 183000 M⁻¹ s⁻¹
0.0004 µM	0.000752 µM	0.00462 s⁻¹	6.14e+06 M⁻¹ s⁻¹					MOR-6993 (full length human IgG2) (antibody, V domains shown, Human IgG2, lambda light chain; made in HKB11 cells) VH: QVQLVESGGGLVQPGGSLRLSCAASGFTFTTSSMHWVRQAPGKGLEWVSRISSHGSNTYYADSVKGRFTISRDNSKNTLYLQMNSLRAEDTAVYYCARDMYRGVYGFALWGQGTLVTVSS VL: DIELTQPPSVSVAPGQTARISCSGDAIRNYYVHWYQQKPGQAPVLVIYEDSDRPSGIPERFSGSNSGNTATLTISGTQAEDEADYYCQSYDKSNVVFGGGTKLTVLG	Kd [1]: 0.000747 µM; koff [1]: 0.00496 s⁻¹; kon [1]: 6.64e+06 M⁻¹ s⁻¹
				1.39 µM	0.264 µM	0.003 µM	0.3 µM	HuCAL GOLD Fab 6991 (MOR-6991 Fab) (Fab, V domains shown, Fab format made in E. coli) VH: QVQLVESGGGLVQPGGSLRLSCAASGFTFNNYAVSWVRQAPGKGLEWVSGISYGGSNTYYADSVKGRFTISRDNSKNTLYLQMNSLRAEDTAVYYCARTLGGDFDHWGQGTLVTVSS VL: DIVLTQPPSVSGAPGQRVTISCSGSSSNIGSNYVNWYQQLPGTAPKLLIYGNSKRPSGVPDRFSGSKSGTSASLAITGLQSEDEADYYCQSFTQMLLVFGGGTKLTVL	
0.0006 µM	0.019 µM	0.00933 s⁻¹	491000 M⁻¹ s⁻¹					MOR-6991 (full length human IgG2) (antibody, V domains shown, Human IgG2, lambda light chain; made in HKB11 cells) VH: QVQLVESGGGLVQPGGSLRLSCAASGFTFNNYAVSWVRQAPGKGLEWVSGISYGGSNTYYADSVKGRFTISRDNSKNTLYLQMNSLRAEDTAVYYCARTLGGDFDHWGQGTLVTVSS VL: DIVLTQPPSVSGAPGQRVTISCSGSSSNIGSNYVNWYQQLPGTAPKLLIYGNSKRPSGVPDRFSGSKSGTSASLAITGLQSEDEADYYCQSFTQMLLVFGGGTKLTVLG	
